Reference: patent publication US20040009939A1, “Methods of enhancing immune induction involving MDA-7” (Board of Regent, The University of Texas System, priority 2002, published 2004)
“Also recorded” adds a separate entry of the source.

Tests used:
[1] = system: HUVEC; test: IP-10 and IFN-γ production by ELISA; format: cell-based, human; details: sMDA-7 treated HUVEC supernatant
Experimental: HUVEC was seeded in six-well plates (1×10^5/well) and treated with sMDA-7 (10 ng/ml). Cell culture supernatant was collected at 6 h, 24 h, and 48 h after treatment, centrifuged at 1200 rpm, and analyzed for IP-10 and IFN-γ protein production using commercially available ELISA kits. Assays were performed as recommended by the manufacturer (R&D Systems, Minneapolis, Minn.). Cells treated with recombinant IFN-γ served as positive controls for IP-10 while cells treated with Ad-mda7 (3000 vp/cell) served as positive control for IFN-γ. Untreated cells served as negative controls in these experiments. Samples were analyzed in quadruplicate and data represented as the average value for each concentration of sMDA-7 tested.

[2] = system: HUVEC and HMVEC cells; test: Endothelial cell differentiation (tube formation) assay; format: cell-based, human
Experimental: Endothelial cell differentiation (tube formation) assays were done using an in vitro angiogenesis assay kit (Chemicon, Temecula, Calif.). Briefly, HUVEC and HMVEC cells were grown to 80% confluency, collected, resuspended in growth medium and plated at a concentration of 2×10^4 cells/well in a 96-well plate coated with matrigel (Chemicon, Temecula, Calif.). To the wells, varying concentrations of MDA-7 protein were added and incubated for 24 h at 37° C. Wells that were not treated with MDA-7 protein served as a negative control. The ability of sMDA-7 to inhibit tube formation was determined and quantitated by counting the number of tubes under bright field microscopy. All samples were tested in duplicate. For comparative studies using MDA-7 and endostatin (Calbiochem), cells were plated as described above and exposed to varying concentration of the proteins. […] All other experimental procedures were the same as described above.

[3] = system: human PBMC; details: cited from earlier work
[4] = system: bFGF-induced angiogenesis; test: In vivo angiogenesis Matrigel assay; design: species or system athymic nude mice
Experimental: To determine the anti-angiogenic activity of sMDA-7, an in vivo angiogenesis assay was performed. Briefly, sMDA-7 and bFGF were mixed with 500 μl of matrigel (Beckton and Dickenson) on ice and injected subcutaneously into athymic nude mice. Animals receiving matrigel containing only bFGF (60 ng) served as a positive control while animals receiving matrigel containing no growth factor served as a negative control. Each group consisted of 5 animals. Experiments were terminated on day 10 and the matrigel was harvested, photographed and subjected to hemoglobin analysis as described previously (Caudel et al., 2002).

[5] = system: tumor cells; test: Tumor cell death by secreted MDA-7 supernatant and bystander mixing; format: cell-based, human; details: supernatant from 293 cells applied to tumor cell cultures
Experimental: This hypothesis was further tested by adding secreted MDA-7 to tumor cells and monitoring cell death. […] When culture supernatants were treated to minimize Ad-mda7 contamination, negligible cell death was induced by MDA-7 containing supernatants. When supernatant from 293 cells was applied to tumor cell cultures, only low levels of cell death were seen (approximately 10-15% above background levels) confirming that the secreted MDA-7, at least at the concentrations released by these cells, was not sufficient to elicit substantial cell death in tumor cells.
In that study, H460 cells were transduced with Ad-mda7 and immunostained with anti-MDA-7 antibody in conjunction with Annexin V staining. By confocal analysis, it was observed that some cells were Annexin V positive but were negative for MDA-7 expression. The frequency of Annexin V positive/MDA-7 negative cells was low and […] in multiple cells lines. Thus, to further evaluate the contribution of secreted MDA-7 in inducing apoptosis in neighboring cells, a series of bystander experiments were performed. Ad-mda7 transduced cells were mixed with native cells that had been previously labled with Ad-GFP and the cultures were scored for apoptosis in the GFP positive cells.

[6] = Serum sMDA-7 by ELISA; format: in vivo, nude mice; details: animals implanted with 293 cells producing MDA-7
From the text: Mice were inoculated subcutaneously with A549 tumor cells in the lower right flank as described in Example 19. When the tumors had reached a size of 50 mm^3, 293 cells producing sMDA-7 (293-mda-7) or parental 293 cells (control) were encapsulated in matrigel and implanted subcutaneously at a site distant (upper right flank) from the tumor and the tumor growth was monitored. […] In comparison to the control, the growth of the tumors was suppressed by 50% after implantation of the encapsulated 293 cells producing MDA-7 protein. To confirm that the inhibitory effect was due to sMDA-7, serum samples from animals were tested for MDA-7 protein by Western blot analysis and ELISA. […] However, faint bands were also observed in the control that may be due to some cross-reactivity with serum proteins. The serum levels of sMDA-7 detected by ELISA was approximately 50 ng/ml.

[7] = system: STAT-3; test: pSTAT-3 Western blot and immunofluorescence; format: cell-based, human
Experimental: To determine the regulation of pSTAT-3 expression following the addition of sMDA-7, Western blot analysis was performed as described previously (Wang et al., 2002). Briefly, cells were harvested by trypsinization and resuspended in lysis buffer (62.5 mM Tris-HCl, 2% SDS, 10% glycerol, 4 M urea). Protein samples (50 μg) were each diluted into a 20 μl solution of lysis buffer and 5% 2-mercaptoethanol (Bio-Rad Laboratories, Hercules, Calif.) and heated in a water bath at 95° C. for 5 min. Protein extracts were then separated by 10% SDS-PAGE in a vertical-slab gel electrophoresis cell (Bio-Rad). The separated proteins were transferred from gel to nitrocellulose membrane (Hybond-ECL; Amersham Pharmacia Biotech, Buckinghamshire, England) and then blocked in a blocking solution (5% dry milk and 0.3% Tween 20 in PBS) for 1 hour. Membranes were incubated with the primary antibodies against pSTAT-3 (1:1000), and β-actin (1:10000). The membranes were then incubated with horseradish peroxidase-labeled secondary antibodies (Amersham). Finally, the proteins were visualized on enhanced chemiluminescence film (Hyperfilm, Amersham) by application of Amersham's Enhanced Chemiluminescence Western blotting detection system.
Activation of STAT-3 was also determined by immunofluorescence assay. HUVEC seeded in two-well chamber slides (1×10^4 cells/well) was treated with sMDA-7 (10 ng/ml) for 4 h, washed in PBS, fixed in cold acetic acid and stained for phosphorylated STAT-3 (pSTAT-3) using rabbit anti-human pSTAT-3 antibody (1:1000, Cell Signaling Technology, Beverly, Mass.) and rhodamine labeled anti-rabbit secondary antibody (1:5000; Molecular Probes, Eugene, Oreg.). Slides were mounted using anti-fade mounting reagent (Vector Laboratories). Pictures were taken 1-2 h after staining using a fluorescence microscope.

[8] = system: HUVEC cells; test: Endothelial cell migration assay; format: cell-based, human; details: VEGF 100 ng/ml
Experimental: Migration assays were performed using HUVEC cells. Cells were starved overnight in basal medium containing 0.5% fetal bovine serum (FBS), collected and re-suspended in the same medium and seeded at a concentration of 1×10^5 cells/well in the upper surface of a 24-well transwell insert with a filter size of 8 μm (Millipore, Cambridge, Mass.). The insert was placed in a 6-well plate that contained medium plus VEGF (100 ng/ml) or VEGF plus MDA-7 (10 ng/ml). The plates containing the transwell were incubated at 37° C. overnight to allow migration. The following day, the wells were disassembled, membranes fixed in crystal violet and the number of cells that had migrated to the lower wells were counted under high power magnification (×40).

B1: sMDA-7: secreted, glycosylated MDA-7 protein purified from supernatant of 293-mda-7 cells (protein)
chain: AQGQEFHFGPCQVKGVVPQKLWEAFWAVKDTMQAQDNITSARLLQQEVLQNVSDAESCYLVHTLLEFYLKTVFKNYHNRTVEVRTLKSFSTLANNFVLIVSQLQPSQENEMFSIRDSAHRRFLLFRRAFKQLDVEAALTKALGEVDILLTWMQKFYKL
Q: Which results are given for B1?
A: IFN-γ induction [1]: IP-10 but not IFN-γ was induced; amount of IP-10 produced ([1]; various time points): 15 to 32 pg/mL; concentration giving complete abrogation of tubular formation ([2]; HUVEC and HMVEC): 10 ng/mL; inhibition of endothelial tube formation ([2]; HUVEC and HMVEC, 24 h): significant inhibition of endothelial tube formation; tubular formation in the presence of IL-10R neutralizing antibody ([2]; HUVEC, antibody 5 ng, sMDA-7 5 ng): able to inhibit tubular formation; tube formation ([2]; HUVEC, sMDA-7 5 ng): complete inhibition of tube formation; cytokine induction [3]: causes the induction of IFN-γ, IL-6 and TNF-α; hemoglobin content in the matrigel ([4]; day 10, vs no bFGF, only bFGF, or endostatin): very significant (p=0.0001) inhibitory effect; also recorded: significant reduction in hemoglobin content; bFGF-induced angiogenesis in matrigel ([4]; sMDA-7 10 ng, 10 days after implantation): inhibition of bFGF-induced angiogenesis; cell death above background levels [5]: 10-15%; serum levels of sMDA-7 detected by ELISA [6]: approximately 50 ng/ml; pSTAT-3 protein expression ([7]; HUVEC and HMVEC, Western blot): significant increase in the phosphorylated form of STAT-3 (pSTAT-3) protein expression as early as 4 h; nuclear localization of pSTAT-3 ([7]; HUVEC, immunofluorescence): increased nuclear localization of pSTAT-3 protein; time of maximal pSTAT-3 expression ([7]; after treatment): 24 h; amount giving complete inhibition of migration ([8]; MDA-7): 50 ng; endothelial cell migration induced by VEGF ([8]; sMDA-7 10 ng/ml): blocked endothelial cell migration
